Measurements reported in patent publication US20210147523A1 (TEIJIN PHARMA, published 2021).
Changes are numbered by the printed parent chain.

T1: Mutant 4 of human SPNS2 (FLAG tag inserted in extracellular loop 11) (human, UniProt Q8IVW8 1-549)
T1 construct: on HEK293 cells; also called extracellular loop 11 mutant
T1 sequence: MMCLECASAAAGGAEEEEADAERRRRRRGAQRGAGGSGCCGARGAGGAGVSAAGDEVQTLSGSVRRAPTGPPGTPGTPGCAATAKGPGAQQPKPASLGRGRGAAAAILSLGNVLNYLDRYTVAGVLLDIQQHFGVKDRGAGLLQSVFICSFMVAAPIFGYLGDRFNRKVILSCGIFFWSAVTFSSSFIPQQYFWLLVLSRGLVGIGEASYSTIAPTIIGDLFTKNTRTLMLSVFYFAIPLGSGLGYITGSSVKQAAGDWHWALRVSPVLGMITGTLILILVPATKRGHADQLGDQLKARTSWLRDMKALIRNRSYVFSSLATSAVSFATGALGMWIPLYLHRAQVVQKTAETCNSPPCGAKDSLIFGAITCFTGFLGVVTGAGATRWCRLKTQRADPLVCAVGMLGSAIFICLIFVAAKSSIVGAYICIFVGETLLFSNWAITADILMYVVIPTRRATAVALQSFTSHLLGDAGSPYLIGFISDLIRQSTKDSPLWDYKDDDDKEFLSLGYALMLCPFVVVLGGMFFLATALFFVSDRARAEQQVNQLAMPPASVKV

T2: Mutant 1 of human SPNS2 (FLAG tag inserted in extracellular loop 1) (human, UniProt Q8IVW8 1-549)
T2 construct: on HEK293 cells; also called extracellular loop 1 mutant
T2 sequence: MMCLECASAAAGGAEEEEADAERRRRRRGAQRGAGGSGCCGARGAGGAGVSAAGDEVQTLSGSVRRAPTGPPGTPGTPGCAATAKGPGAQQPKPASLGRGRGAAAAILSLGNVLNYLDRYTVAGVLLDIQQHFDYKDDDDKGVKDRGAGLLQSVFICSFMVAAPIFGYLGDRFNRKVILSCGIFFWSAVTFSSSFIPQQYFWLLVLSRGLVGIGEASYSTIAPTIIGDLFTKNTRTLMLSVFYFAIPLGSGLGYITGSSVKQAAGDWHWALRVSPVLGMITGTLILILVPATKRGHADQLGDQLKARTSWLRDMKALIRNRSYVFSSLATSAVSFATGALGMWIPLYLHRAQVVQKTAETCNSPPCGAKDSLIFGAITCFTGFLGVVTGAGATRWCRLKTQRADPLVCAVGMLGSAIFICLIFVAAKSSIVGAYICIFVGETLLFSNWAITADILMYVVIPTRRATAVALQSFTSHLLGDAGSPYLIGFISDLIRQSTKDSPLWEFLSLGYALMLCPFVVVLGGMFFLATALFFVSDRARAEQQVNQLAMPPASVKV

T3: Mutant 2 of human SPNS2 (FLAG tag inserted in extracellular loop 5) (human, UniProt Q8IVW8 1-549)
T3 construct: on HEK293 cells; also called extracellular loop 5 mutant
T3 sequence: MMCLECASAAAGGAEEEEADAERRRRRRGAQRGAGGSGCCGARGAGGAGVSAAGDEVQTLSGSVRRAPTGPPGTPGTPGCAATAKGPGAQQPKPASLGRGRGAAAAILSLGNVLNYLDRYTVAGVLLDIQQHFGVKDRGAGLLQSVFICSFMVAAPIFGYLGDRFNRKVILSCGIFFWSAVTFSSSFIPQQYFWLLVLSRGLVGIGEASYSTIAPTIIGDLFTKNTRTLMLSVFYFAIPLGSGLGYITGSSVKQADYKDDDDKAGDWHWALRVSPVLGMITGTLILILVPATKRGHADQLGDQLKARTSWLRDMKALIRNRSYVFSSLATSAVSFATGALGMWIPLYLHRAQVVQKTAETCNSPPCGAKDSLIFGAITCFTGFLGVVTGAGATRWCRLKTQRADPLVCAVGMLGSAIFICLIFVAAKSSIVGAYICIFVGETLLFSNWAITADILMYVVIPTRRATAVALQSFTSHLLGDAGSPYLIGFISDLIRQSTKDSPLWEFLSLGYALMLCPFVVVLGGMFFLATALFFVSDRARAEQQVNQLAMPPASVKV

T4: mouse SPNS2 (mouse, UniProt Q91VM4 1-549)
T4 sequence: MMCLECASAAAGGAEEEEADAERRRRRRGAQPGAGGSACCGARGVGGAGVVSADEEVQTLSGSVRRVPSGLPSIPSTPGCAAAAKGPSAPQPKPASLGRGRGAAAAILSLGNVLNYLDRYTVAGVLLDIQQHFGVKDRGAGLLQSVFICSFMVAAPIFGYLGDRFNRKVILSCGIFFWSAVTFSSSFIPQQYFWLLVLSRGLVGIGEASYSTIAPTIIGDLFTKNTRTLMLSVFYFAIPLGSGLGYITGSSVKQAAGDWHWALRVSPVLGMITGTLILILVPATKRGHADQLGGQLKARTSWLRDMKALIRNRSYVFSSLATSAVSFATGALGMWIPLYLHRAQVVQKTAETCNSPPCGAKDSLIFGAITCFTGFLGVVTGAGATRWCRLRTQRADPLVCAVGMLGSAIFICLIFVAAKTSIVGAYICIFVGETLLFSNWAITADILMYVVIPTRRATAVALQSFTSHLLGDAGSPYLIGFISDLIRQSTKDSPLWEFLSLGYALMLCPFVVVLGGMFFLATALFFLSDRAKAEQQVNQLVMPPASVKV

B1: 49-0703G (antibody, IgG2b, V domains shown)
VH: EVQLVESGGGLVQPGRSMKLSCAASGFTFSNHYMAWVRQAPTKGLEWVASISTGGGNTYYRDSVKGRFTISRDNAKSTLYLQMDSLRSEDTATYYCARQDYSNYMGGFAYWGQGTLVTVSS
VL: QFVLTQPNSVSTNLGSTVKLSCKRSTGNIGNNYVNWYQQYEGRSPTTMIYRDDERPDGVPDRFSGSIDRSSNSALLTINNVQTEDEADYFCQSFSNGMFIFAGGTQLTVL
B2: 94-1311E (antibody, V domains shown)
VH: EVQLQQSGAGLVRPRTSVRLSCKISGDSITAYYVHFVKQRPGQGLEWIGRIDPEDDSTKYSEKFKNKATLTADVSSSTAYLILSSLTSDDSATYFCSTLTGLDYWGQGVMVTVSS
VL: DIQMTQSPPVLSASVGDRVTLSCKASQSVHNKLDWYQQKHGEAPKLLIYYTHNLQTGIPSRFSGSGSGSDYTLTISSLRAEDVATYYCFQYYSGWTFGGGTKLEMKR
B3: 33-0503E (antibody, IgG2b, V domains shown)
VH: EVQLVESGGGLVRPGGSMKLSCGASGFIFDNYYMTWVRQAPTKGLEWVASISSSGGNTYYRDSVRGRFTISRDNAGNTLSLQMGSLRAEDTATYHCAKEGYRGRYFDYWGQGVMVTVSS
VL: QVVLTQPNSVSTNLGSTVKLSCKRTTGNIGSNYVNWYQQHEGRSPTTMIYRDDERPDGVPDRFSGSIDRSSNSALLTINNVQTEDEAEYFCQSYSSGIIFGGGTKLTVL
B4: 83-1110B (antibody, IgG2b, V domains shown)
VH: EVQLQQSGPEFVRPGTSVKFSCKVSGGSITSYFIHFVKQRPGQGLEWIGKIDPEDDSTKYGEKFKNKATLTADTSSNTAFLKLSSLTSEDTAIYFCTTLTGLDYWGQGVMVTVSS
VL: DIQMTQSPPVLSAAVGDRVTLSCKASRSLNKNLDWYQQKHGETPKLLIYHTHNLQTGIPSRFSGSGSDTDYTLTISSLQTEDVATYYCYQYHSGWTFGGGTRLELRR
B5: 80-1104A (antibody, IgG2b, V domains shown)
VH: EVQLVETGGGLVQPGSSLKLSCSTSGFTFSETWMSWVRQAPGKGLEWVGLIKDKNSNYEANYAESVKGRFTISRDDSKRRVYLQMYTLRDQDTATYYCTSHEDFYYYSSYYFDYWGQGVMVTVSS
VL: DIVLTQSPATLSVTPGESVSLSCRASQGISTSIHWYQQKSNESPRLLIKYASQSMSGIPSRFSGSGSGTDFTLRINRVESEDFSVYYCQQSYNLPLTFGSGTKLEIKR
B6: 93-1310F (antibody, IgG2b, V domains shown)
VH: B5 VH with S23A, E31D, G49A, Y86F, Q117H
VL: B5 VL with E42G, M55I, S91T, N93S, K103R

target: T1, Mutant 4 of human SPNS2 (FLAG tag …); experiment: flow cytometry, FLAG-insertion mutant
Outline: (§1)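 Binding was scored by flow cytometry as FITC-positive over Alexa 647-positive cell rate: (+) <0.1, (±) 0.1–<0.5, (−) ≥0.5. Staining used anti-SPNS2 (anti-rat IgG-FITC) and anti-FLAG (anti-mouse IgG-Alexa 647) antibodies at 20 μg/mL each, 30 min at room temperature, on HEK 293 cells lipofected the previous day.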

| Binder | FITC+/Alexa 647+ cell rate ratio [ratio] |
| --- | --- |
| B1 | ≥ 0.5 |
| B2 | ≥ 0.5 |
| B3 | ≥ 0.5 |
| B4 | ≥ 0.5 |
| B5 | ≥ 0.5 |
| B6 | ≥ 0.5 |

target: T2, Mutant 1 of human SPNS2 (FLAG tag …); experiment: flow cytometry, FLAG-insertion mutant
Outline: as §1

| Binder | FITC+/Alexa 647+ cell rate ratio [ratio] |
| --- | --- |
| B1 | < 0.1 |
| B2 | < 0.1 |
| B3 | < 0.1 |
| B4 | < 0.1 |
| B5 | < 0.1 |
| B6 | < 0.1 |

target: T3, Mutant 2 of human SPNS2 (FLAG tag …); experiment: flow cytometry, FLAG-insertion mutant
Outline: as §1

| Binder | FITC+/Alexa 647+ cell rate ratio [ratio] |
| --- | --- |
| B1 | < 0.1 |
| B2 | < 0.1 |
| B3 | < 0.1 |
| B4 | < 0.1 |
| B5 | ≥ 0.5 |
| B6 | ≥ 0.5 |

target: T4, mouse SPNS2; experiment: cell-based or functional assay

| Binder | pIC50, S1P transport inhibition (S1PR3 Ca2+ FLIPR bioassay) |
| --- | --- |
| B1 | 7.3 pIC50 (M) |
| B2 | 8.1 pIC50 (M) |
| B3 | 7.5 pIC50 (M) |
| B4 | 8 pIC50 (M) |
| B5 | 7.8 pIC50 (M) |
| B6 | 7.9 pIC50 (M) |
